Source: US20220275047A1 (published 2022)

Biological target: T1, MUC5AC peptide on HLA-DPA1*01:03 / HLA-DPB1*04:01 (human)
T1 peptide: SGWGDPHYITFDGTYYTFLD
Test: multimer staining

binding result: recognises
B1: 05-MUC5AC4922-4941 (TCR, V domains shown)
Valpha: QTVTQSQPEMSVQEAETVTLSCTYDTSESNYYLFWYKQPPSRQMILVIRQEAYKQQNATENRFSVNFQKAAKSFSLKISDSQLGDTAMYFCAFMKRAETSGSRLTFGEGTQLTVNP
Vbeta: NAGVTQTPKFRVLKTGQSMTLLCAQDMNHEYMYWYRQDPGMGLRLIHYSVGEGTTAKGEVPDGYNVSRLKKQNFLLGLESAAPSQTSVYFCASSYWPTRETQYFGPGTRLLVL
